In test [1] the target is T1, human CD20 on human B cell line Raji (human, UniProt P11836 1-297).
T1 construct: whole, on cells; also called hCD20
T1 sequence (looked up): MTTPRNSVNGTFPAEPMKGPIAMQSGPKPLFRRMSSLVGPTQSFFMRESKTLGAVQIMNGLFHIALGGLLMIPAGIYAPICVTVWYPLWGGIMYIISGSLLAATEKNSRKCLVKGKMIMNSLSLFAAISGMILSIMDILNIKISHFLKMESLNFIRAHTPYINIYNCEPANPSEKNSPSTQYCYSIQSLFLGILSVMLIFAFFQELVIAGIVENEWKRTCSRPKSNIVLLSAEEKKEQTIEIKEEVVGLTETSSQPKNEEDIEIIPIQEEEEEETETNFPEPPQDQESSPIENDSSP
Description: preliminary cell surface binding study.

Test [2] has as its target T2, human IL-18 (human, UniProt Q14116 37-193).
T2 construct: also called hIL-18
Briefly: SPR (Biacore).

The target in test [3] is T2, human IL-18. Description: SPR (Biacore). The source holds these as a separate data set.
In test [4] the target is T2, human IL-18. Description: SPR (Biacore). The source holds these as a separate data set. (SPR reads the build-up and loss of mass on a sensor chip optically.)
Test [5] addresses T2, human IL-18. Description: cell-based or functional assay.
Test [6] concerns the target T2, human IL-18. Briefly: cell-based or functional assay. The source holds these as a separate data set.
In test [7] the target is T2, human IL-18. Description: cell-based or functional assay. The source holds these as a separate data set.
For test [8], the target named is T1, human CD20 on human B cell line Raji. Description: flow cytometry staining of Raji B cells, FITC goat anti-murine IgG. The source says: The anti-CD20/anti-CD3 DVD-Ig was generated as chimeric Ig i.e the constant region was a human constant region. For binding analysis, human T cell line Jurkat and B cell line Raji were blocked with human IgG and then stained with murine anti-hCD3 mAb OKT3, murine anti-hCD20 mAb 1F5, and anti-CD20/anti-CD3 DVD-Ig. Cells were then washed and stained with FITC-labeled goat anti-murine IgG (with no anti-hIgG cross-reactivity). Anti-CD20/CD3 DVD-Ig bound both T and B cells, whereas CD3 and CD20 mAbs bound only T or B cells, respectively. The amino acid sequence of CD20/CD3 DVD-Ig is disclosed in Table 25.
In general terms: In flow cytometry, cells or beads pass a laser one at a time.

In test [9] the target is T3, human IL-12 (human, UniProt P29459 23-219; P29460 23-328).
T3 construct: also called hIL-12
T3 sequence (looked up) 1: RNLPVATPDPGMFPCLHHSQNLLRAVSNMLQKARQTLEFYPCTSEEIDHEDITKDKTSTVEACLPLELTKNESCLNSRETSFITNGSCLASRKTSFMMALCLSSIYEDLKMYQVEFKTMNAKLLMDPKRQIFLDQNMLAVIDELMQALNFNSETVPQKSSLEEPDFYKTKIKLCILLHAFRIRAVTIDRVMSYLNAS
T3 sequence (looked up) 2: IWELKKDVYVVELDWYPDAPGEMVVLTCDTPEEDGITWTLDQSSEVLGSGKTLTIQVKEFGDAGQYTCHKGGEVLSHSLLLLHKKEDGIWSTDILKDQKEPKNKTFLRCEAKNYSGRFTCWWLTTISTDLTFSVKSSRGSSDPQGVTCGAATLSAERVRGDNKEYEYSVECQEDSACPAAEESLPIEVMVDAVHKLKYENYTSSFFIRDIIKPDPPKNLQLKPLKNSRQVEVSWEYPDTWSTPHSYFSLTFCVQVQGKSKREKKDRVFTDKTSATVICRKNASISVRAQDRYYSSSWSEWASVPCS
Description: SPR (Biacore).

Test [10] deals with T3, human IL-12. Briefly: SPR (Biacore). The source holds these as a separate data set.
The target of test [11] is T3, human IL-12. Briefly: cell-based or functional assay.
The target of test [12] is T3, human IL-12. Description: cell-based or functional assay. The source holds these as a separate data set.
Test [13] addresses T4, mouse IL-1α (mouse, UniProt P01582 115-270).
T4 sequence (looked up): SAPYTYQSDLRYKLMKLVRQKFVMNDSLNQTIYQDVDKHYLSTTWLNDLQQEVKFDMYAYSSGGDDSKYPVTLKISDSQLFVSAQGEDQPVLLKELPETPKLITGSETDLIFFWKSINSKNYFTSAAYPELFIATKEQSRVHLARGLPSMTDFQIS
Briefly: cell-based or functional assay.

The target of test [14] is mouse IL-1β (mouse, UniProt P10749 118-269). Briefly: cell-based or functional assay.
Test [15] concerns the target T3, human IL-12. Briefly: SPR (Biacore). The source holds these as a separate data set.
Test [16] concerns the target T3, human IL-12. Briefly: cell-based or functional assay. This is another data set of the same source.

The values below come from US20140154256A1 (published 2014).

Like-named read-outs stand apart in the source and are kept apart here.

Chain of mouse IL-1β (P10749 118-269 limits assumed): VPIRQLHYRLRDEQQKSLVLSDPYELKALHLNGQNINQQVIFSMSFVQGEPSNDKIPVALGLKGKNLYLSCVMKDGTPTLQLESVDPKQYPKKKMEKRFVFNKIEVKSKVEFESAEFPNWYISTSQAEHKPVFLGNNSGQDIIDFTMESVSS

B1: anti-CD20/anti-CD3 DVD-Ig (CD20CD3DVD-Ig) (bispecific antibody, human IgG1, kappa)
heavy: not shown
light: QIVLSQSPAILSASPGEKVTMTCRASSSLSFMHWYQQKPGSSPKPWIYATSNLASGVPARFSGSGSGTSYSLTISRVEAEDAATYFCHQWSSNPLTFGAGTKLELKRADAAPTVSIFPPQIVLTQSPAIMSASPGEKVTMTCSASSSVSYMNWYQQKSGTSPKRWIYDTSKLASGVPAHFRGSGSGTSYSLTISGMEAEDAATYYCQQWSSNPFTFGSGTKLEINRTVAAPSVFIFPPSDEQLKSGTASVVCLLNNFYPREAKVQWKVDNALQSGNSQESVTEQDSKDSTYSLSSTLTLSKADYEKHKVYACEVTHQGLSSPVTKSFNRGEC
notes: VCD20-linker-VCD3-constant; chimeric Ig with human constant region; also called Anti-CD20/CD3 DVD-Ig
Take B1: the binding result in test [1] is on record as “binds”.

B2: ABT325 (fully human mAb against human IL-18) (antibody, V domains shown)
VH: EVQLVQSGTEVKKPGESLKISCKGSGYTVTSYWIGWVRQMPGKGLEWMGFIYPGDSETRYSPTFQGQVTISADKSFNTAFLQWSSLKASDTAMYYCARVGSGWYPYTFDIWGQGTMVTVSS
VL: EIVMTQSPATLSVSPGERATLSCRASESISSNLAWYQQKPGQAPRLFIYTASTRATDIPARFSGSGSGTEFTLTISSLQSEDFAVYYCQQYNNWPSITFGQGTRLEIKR
notes: Fully human mAb with a Vκ
Consider B2, for which the Kd in test [2] was found to be 0.137 nM; in test [3], 0.137 nM; in test [4], 0.191 nM. The “IC50 (M), KG-1 bioassay (IFN-γ production)” value in test [5] was 3e-10 M. In addition, in test [6], the “Potency (IC50), KG-1 Assay” value came out at 0.3 nM. The “Potency (IC50, M), KG-1 bioassay (IL-18)” value in test [7] came out at 6.87e-11 M.

B3: murine anti-human-CD20 mAb clone 5F1 (antibody, V domains shown)
VH: QVQLRQPGAELVKPGASVKMSCKASGYTFTSYNMHWVKQTPGQGLEWIGAIYPGNGDTSYNQKFKGKATLTADKSSSTAYMQLSSLTSEDSAVYYCARSHYGSNYVDYFDYWGQGTTLTVSS
VL: QIVLSQSPAILSASPGEKVTMTCRASSSLSFMHWYQQKPGSSPKPWIYATSNLASGVPARFSGSGSGTSYSLTISRVEAEDAATYFCHQWSSNPLTFGAGTKLELKR
notes: Murine mAb
As for B3, in [8], the binding result was “binds”.

B4: ABT874 (fully human mAb against human IL-12p40) (antibody, V domains shown)
VH: QVQLVESGGGVVQPGRSLRLSCAASGFTFSSYGMHWVRQAPGKGLEWVAFIRYDGSNKYYADSVKGRFTISRDNSKNTLYLQMNSLRAEDTAVYYCKTHGSHDNWGQGTMVTVSS
VL: QSVLTQPPSVSGAPGQRVTISCSGSRSNIGSNTVKWYQQLPGTAPKLLIYYNDQRPSGVPDRFSGSKSGTSASLAITGLQAEDEADYYCQSYDRYTHPALLFGTGTKVTVLG
notes: Fully human mAb with a Vλ
In the case of B4, the Kd in test [9] was found to be 0.0647 nM; in [10], 0.065 nM. Moreover, the “IC50 (M), IL-12-induced IFN-γ production by PHA blast cells (PBMC assay)” value in test [11] came out at 5e-12 M. The “Potency (IC50), PHA-Blast Assay” value in test [12] is 0.005 nM.

B5: mIL-1α/β DVD-Ig (bispecific antibody, mouse IgG2a, kappa)
heavy: EVQLQQSGPELVKPGTSVKMSCKTSGYTFTSYVMHWVKQKPGQGLEWIGYIIPYNDNTKYNEKFKGKATLTSDKSSSTAYMELSSLTSEDSAVYYCARRNEYYGSSFFDYWGQGTTLTVSSAKTTAPSVYPLAPQVILKESGPGILQPSQTLSLTCSFSGFSLSTYGTAVNWIRQPSGKGLEWLAQIGSDDRKLYNPFLKSRITLSEDTSNSQVFLKITSVDTEDSATYYCANGVMEYWGLGTSVTVSSAKTTAPSVYPLAPVCGDTTGSSVTLGCLVKGYFPEPVTLTWNSGSLSSGVHTFPAVLQSDLYTLSSSVTVTSSTWPSQSITCNVAHPASSTKVDKKIEPRGPTIKPCPPCKCPAPNLLGGPSVFIFPPKIKDVLMISLSPIVTCVVVDVSEDDPDVQISWFVNNVEVHTAQTQTHREDYNSTLRVVSALPIQHQDWMSGKEFKCKVNNKDLPAPIERTISKPKGSVRAPQVYVLPPPEEEMTKKQVTLTCMVTDFMPEDIYVEWTNNGKTELNYKNTEPVLDSDGSYFMYSKLRVEKKNWVERNSYSCSVVHEGLHNHHTTKSFSRTPGK
light: DIQMTQSPASLSASVGETVTITCRGSGILHNYLVWYQQKQGKSPQLLVYSAKILADGVPSRFSGSGSGTQYSLKINSLQPEDFGSYYCQHFWSTPFTFGSGTKLEIKRADAAPTVSIFPPSIVMTQTPKFLLVSAGDRVTITCKASQSVNHDVAWYQQMPGQSPKLLIYFASNRYTGVPDRFTGSGYGTDFTFTISTVQAEDLAVYFCQQDYSSPYTFGGGTKLEIKRADAAPTVSIFPPSSEQLTSGGASVVCFLNNFYPKDINVKWKIDGSERQNGVLNSWTDQDSKDSTYSMSSTLTLTKDEYERHNSYTCEATHKTSTSPIVKSFNRNEC
On to B5, for which the “IC50 (M), in vitro potency (assay not described)” value in test [13] stood at 2e-09 M; in test [14], 8e-10 M.

B6: anti-IL-12 mAb clone 1D4.1 (antibody, V domains shown)
VH: EVTLRESGPALVKPTQTLTLTCTFSGFSLSKSVMGVSWIRQPPGKALEWLAHIYWDDDKYYNPSLKSRLTISKDTSKNQVVLTMTNMDPVDTATYYCARRGIRSAMDYWGQGTTVTVSS
VL: DIVMTQSPDSLAVSLGERATINCKASQSVSNDVAWYQQKPGQPPKLLIYYASNRYTGVPDRFSGSGSGTDFTLTISSLQAEDVAVYYCQQDYNSPWTFGGGTKVEIKR
notes: Parent anti-IL-12 mAb
In test [15], B6 gave a Kd of 0.12 nM. Moreover, in test [16], the “Potency (IC50, M), PBMC assay (IL-12)” value turned out to be 4.18e-10 M.

The Kd is the free concentration of one partner at which half of the binding sites on the other are occupied at equilibrium, for simple one-to-one binding. Lower therefore signals a tighter complex.
